According to patent publication US20130143812A1, “ANTI-INFLAMMATORY DRUG” (SEKISUI MEDICAL CO., LTD., priority 2010, published 2013):

Tests used:
RAW264.7 cells [1] = assay: Expression of M2 and M1 macrophage markers in RAW264.7 cells cultured with activin A or activin B (TaqMan PCR); format: cell-based; settings: 10 or 30 ng/mL added individually, 8 hours
Experimental: Each of activin A (10 ng/mL or 30 ng/mL) and activin B (10 ng/mL or 30 ng/mL) was individually added to RAW264.7 cells. Human Recombinant (R&D Systems, 338AC005) and Recombinant (R&D Systems, 659AB005) were used for activin A and activin B, respectively. After eight hours, RNeasy Mini Kit (250) (Qiagen, Cat. Number 74106) was used for recovering the cells to extract RNA.
The RNA extracted at step (1) was used for performing a reverse transcription reaction in accordance with the protocol of High Capacity cDNA Reverse Transcription Kit with RNase Inhibitor (ABI) to perform TagMan PCR. Arginase-1 was selected as an M2 macrophage marker and IL-6 and MCP-1 were selected as M1 macrophage markers to create respective TaqMan probes. Each of mRNA expression levels is represented by a multiple when an expression level of cyclophilin A mRNA in the same sample is defined as one (hereinafter, the same applies to the examples using TaqMan PCR unless otherwise stated).

RAW264.7 cells [2] = assay: Expression of M2 macrophage markers in RAW264.7 cells cultured with activin A and SB431542; format: cell-based; settings: activin A 10 or 30 ng/mL, 24 hours
Experimental: Activin A (10 ng/mL or 30 ng/mL) and SB431542 (0.1 to 1 μM, Santa Cruz Biotechnology, Inc., sc-204265) were added to RAW264.7 cells in combination as depicted in FIG. 2. Human Recombinant (R&D Systems, 338AC005) was used for activin A. After 24 hours, RNeasy Mini Kit (250) (Qiagen, Cat. Number 74106) was used for recovering the cells to extract RNA. The RNA extracted at step (1) was used for performing a reverse transcription reaction in accordance with the protocol of High Capacity cDNA Reverse Transcription Kit with RNase Inhibitor (ABI) to perform TaqMan PCR. Arginase-1, Mrc2 (mannose receptor 2), and IL-10 were selected as M2 macrophage markers to create respective TaqMan probes.

RAW264.7 cells [3] = assay: Macrophage marker expression in RAW264.7 cells with activin A, activin B or SB431542 and palmitic acid; format: cell-based; settings: 8 hours
Experimental: (1) Induction of Macrophages by Activin Species Activin A (10 ng/mL), activin B (10 ng/mL), and SB431542 (0.1 to 1 μM) were added to RAW264.7 cells in combination as depicted in FIG. 4. Human Recombinant (R&D Systems, 338AC005) and Recombinant (R&D Systems, 659AB005) were used for activin A and activin B, respectively. After 30 minutes, palmitic acid (a proinflammatory substance) was added to the final concentration of 200 μM and, after eight hours, RNeasy Mini Kit (250) (Qiagen, Cat. Number 74106) was used for recovering the cells to extract RNA. The RNA extracted at step (1) was used for performing a reverse transcription reaction in accordance with the protocol of High Capacity cDNA Reverse Transcription Kit with RNase Inhibitor (ABI) to perform TaqMan PCR. Arginase-1 was selected as an M2 macrophage marker and IL-6 and MCP-1 were selected as M1 macrophage markers to create respective TaqMan probes. Analysis was performed in the same way as the expression analysis of macrophage markers of Example 1.

RAW264.7 cells [4] = assay: Arginase-1 expression in RAW264.7 cells with activin A, Fstl3, anti-Fstl3 antibody or mouse IgG and palmitic acid; format: cell-based; settings: activin A 10 ng/mL, under induction of inflammation by palmitic acid 200 μM
Experimental: Fstl3 (30 ng/mL), an anti-Fstl3 antibody or mouse IgG (0.3 to 10 μg/mL), and activin A (10 ng/mL) were added to RAW264.7 cells in combination as depicted in FIG. 6. Human Recombinant (R&D Systems, 338AC005), Recombinant (R&D Systems, 659AB005), and Follistatin-like 3 Recombinant (R&D Systems, 1255F3025) were used for activin A, activin B, and Fstl3, respectively. After 30 minutes, palmitic acid (a proinflammatory substance) was added to the final concentration of 200 μM and, after eight hours, RNeasy Mini Kit (250) (Qiagen, Cat. Number 74106) was used for recovering the cells to extract RNA.
The RNA extracted at step (1) was used for performing a reverse transcription reaction in accordance with the protocol of High Capacity cDNA Reverse Transcription Kit with RNase Inhibitor (ABI) to perform TaqMan PCR. Arginase-1 was selected as an M2 macrophage marker to create TaqMan probes.

[5] = tested on: high-fat diet-fed B6 mice; assay: Glucose tolerance test (GTT) in high-fat diet-fed B6 mice given recombinant adenovirus; format: in vivo; settings: activin expressed by recombinant adenovirus, glucose 1.0 mg/g-BW into abdominal cavity
Experimental: Adenovirus was produced in the same way as the production of recombinant adenovirus in Example 3.
After five-week-old male B6 mice were adapted with normal diet for one week, high-fat diet was fed for twelve weeks. The recombinant adenovirus (5.0×10^11 pfu/mL) was lysed in 150 μL of PBS and administered to mice in the 18th week from the tail vein once a week for two weeks. A glucose tolerance test (GTT) was performed on seventh day after the second administration.
The GTT was performed as follows. Into the abdominal cavities of mice fasted for 16 hours from the previous day of the test, 1.0 mg/g-BW of glucose (diluted by physiological saline) was administered. Serum was separated from collected whole blood and glucose concentration was measured by Glucose-Test Wako (manufactured by Wako Pure Chemical Industries).

[6] = tested on: high-fat diet-fed B6 mice; assay: Arginase-1 mRNA expression in visceral fat of high-fat diet-fed B6 mice given recombinant adenovirus; format: in vivo; settings: twelve-week high-fat diet B6 mice, activin expressed by recombinant adenovirus via tail vein once a week for two weeks
Excerpt: (§1) Full-length mouse inhibin βA cDNA or full-length mouse inhibin βB cDNA was amplified by using pcDNA3.1/V5-HisA (Invitrogen) in accordance with the recommended method. The amplified product was subjected to HindIII and EcoRV treatments and used for production of recombinant adenovirus. The recombinant adenovirus of inhibin βA or inhibin βB was produced by using Takara Adenovirus Expression Vector Kit (Takara) in accordance with the recommended method. For negative control, β-galactosidase-gene-containing virus attached to the kit was used. The adenovirus was transfected to HEK293 cells by using CellPhect (registered trademark) Transfection Kit (GE Healthcare) with the calcium phosphate method.
After five-week-old male B6 mice were adapted with normal diet for one week, high-fat diet was fed for twelve weeks. The recombinant adenovirus (5.0×10^11 pfu/mL) was lysed in 150 μL of PBS and administered to mice in the 18th week from the tail vein once a week for two weeks. Visceral fat was collected on seventh day after the second administration for performing reverse transcription in accordance with the protocol of High Capacity cDNA Reverse Transcription Kit with RNase Inhibitor (ABI) and the expression analysis of arginase-1 was performed with TaqMan PCR.

db/db mice = assay: Arginase-1 mRNA expression in visceral fat of db/db mice given recombinant adenovirus; format: in vivo; settings: activin expressed by recombinant adenovirus via tail vein once a week for two weeks, compared to control
Excerpt: as §1
After seven-week-old male db/db mice were adapted for one week, 5.0×10^11 pfu/mL of the recombinant adenovirus was lysed in 150 μL of PBS and administered from the tail vein once a week for two weeks. Visceral fat was collected on seventh day after the second administration for performing a reverse transcription reaction in accordance with the protocol of High Capacity cDNA Reverse Transcription Kit with RNase Inhibitor (ABI) and the expression analysis of arginase-1 was performed with TaqMan PCR.

[7] = activin 10 ng/mL, palmitic acid 200 μM

B1: activin A: Human Recombinant (R&D Systems, 338AC005); in Examples 3 and 7 expressed by inhibin βA recombinant adenovirus (protein, UniProt P08476 311-426, looked up)
Inhibin beta A chain: GLECDGKVNICCKKQFFVSFKDIGWNDWIIAPSGYHANYCEGECPSHIAGTSGSSLSFHSTVINHYRMRGHSPFANLKSCCVPTKLRPMSMLYYDDGQNIIKKDIQNMIVEECGCS
modifications: Inhibin beta A chain homodimer
expression level of IL-6 (M1 macrophage marker) (RAW264.7 cells [1]): not changed | expression level of MCP-1 (M1 macrophage marker) (RAW264.7 cells [1]): not changed | expression of arginase-1 (M2 macrophage marker) (RAW264.7 cells [1]; mRNA relative to cyclophilin A): remarkably increased | expression of IL-10 (RAW264.7 cells [2]): remarkably increased | expression of Mrc2 (RAW264.7 cells [2]): remarkably increased | expression of arginase-1 (RAW264.7 cells [2]): remarkably increased | expression level of arginase-1 (RAW264.7 cells [3]; activin 10 ng/mL present, palmitic acid 200 μM added, compared to control): remarkably increased | expression level of MCP-1, effect of activin addition (RAW264.7 cells [3]; [7]): not changed | expression of IL-6, effect of activin addition (RAW264.7 cells [3]; [7]): slightly reduced | expression level of arginase-1 (RAW264.7 cells [4]): increased | glucose metabolism in glucose tolerance test (GTT) [5]: improved glucose metabolism | expression level of arginase-1 in visceral fat [6]: slightly increased | expression of arginase-1 in visceral fat (db/db mice): no difference from the control
